These results are taken from PMC5314460 (Structure (London, England : 1993), 2017).

Common to all, as to assay: pull-down
One assay has as its target T1, Enp1 (yeast, UniProt P38333 1-483).
T1 sequence (looked up): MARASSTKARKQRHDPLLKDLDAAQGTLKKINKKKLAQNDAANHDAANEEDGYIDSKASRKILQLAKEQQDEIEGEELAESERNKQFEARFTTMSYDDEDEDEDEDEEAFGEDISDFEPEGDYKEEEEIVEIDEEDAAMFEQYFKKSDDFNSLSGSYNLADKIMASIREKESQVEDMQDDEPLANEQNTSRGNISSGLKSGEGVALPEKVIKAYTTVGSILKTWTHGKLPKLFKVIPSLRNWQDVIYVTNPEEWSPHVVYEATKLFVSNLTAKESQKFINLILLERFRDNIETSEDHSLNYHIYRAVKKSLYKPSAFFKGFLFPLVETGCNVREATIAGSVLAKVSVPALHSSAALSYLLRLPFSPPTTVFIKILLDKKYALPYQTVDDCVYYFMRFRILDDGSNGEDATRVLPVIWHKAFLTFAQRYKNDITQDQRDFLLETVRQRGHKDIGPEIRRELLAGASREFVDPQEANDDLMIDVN

The target of assay [1] is T2, Enp1-TPR (residues 154-483) (yeast, UniProt P38333 154-483).
T2 sequence (looked up): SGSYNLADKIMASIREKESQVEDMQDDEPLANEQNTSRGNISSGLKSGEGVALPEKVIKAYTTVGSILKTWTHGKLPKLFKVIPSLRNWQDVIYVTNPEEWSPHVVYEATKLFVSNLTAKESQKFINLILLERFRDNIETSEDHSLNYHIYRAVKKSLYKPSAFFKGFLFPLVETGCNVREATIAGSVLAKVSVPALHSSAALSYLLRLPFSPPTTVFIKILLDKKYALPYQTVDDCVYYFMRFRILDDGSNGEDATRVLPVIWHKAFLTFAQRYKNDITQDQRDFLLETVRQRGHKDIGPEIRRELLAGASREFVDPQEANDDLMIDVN

A further assay concerns the target T3, SUMO-Rps3 (yeast, UniProt P05750 1-240).
T3 sequence: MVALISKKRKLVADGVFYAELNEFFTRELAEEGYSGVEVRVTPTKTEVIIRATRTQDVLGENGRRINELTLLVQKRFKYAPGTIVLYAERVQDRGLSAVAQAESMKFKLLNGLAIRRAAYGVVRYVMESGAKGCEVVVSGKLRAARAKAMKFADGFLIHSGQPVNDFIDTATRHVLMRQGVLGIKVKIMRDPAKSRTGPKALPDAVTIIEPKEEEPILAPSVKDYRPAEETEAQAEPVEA

B1: Ltv1-M (residues 185-394) (domain or fragment, yeast, UniProt P34078 185-394, looked up)
chain: DDVVVEDISKKTQLQGDNYGEEEKEDDIFAQLLGSGEAKDEDEFEDEFDEWDIDNVENFEDENYVKEMAQFDNIENLEDLENIDYQADVRRFQKDNSILEKHNSDDEFSNAGLDSVNPSEEEDVLGELPSIQDKSKTGKKKRKSRQKKGAMSDVSGFSMSSSAIARTETMTVLDDQYDQIINGYENYEEELEEDEEQNYQPFDMSAERSD
With B1, the binding result (with Enp1; in assay [1]; in the assay with SUMO-Rps3) was “binds” each time.

B2: Ltv1-N (N-terminal 180 residues) (domain or fragment, yeast, UniProt P34078 1-180, looked up)
chain: MSKKFSSKNSQRYVVVHRPHDDPSFYDTDASAHVLVPVSNPNKTSPEADLRKKDVSSTKPKGRRAHVGEAALYGINFDDSEYDYTQHLKPIGLDPENSIFIASKGNEQKVEKKNIEDLFIEPKYRRDEIEKDDALPVFQRGMAKPEYLLHQQDTTDEIRGFKPDMNPALREVLEALEDEA
Take B2: in the assay with SUMO-Rps3, the binding result was “binds”.
